Experimental data taken from patent publication US20240352075A1, “PACAP1-23 ANALOG GLYCOPEPTIDES AND METHODS FOR PRODUCING AND USING THE SAME” (priority 2021, published 2024).
Primed or numbered codes have the meaning given here. Where no end group is shown, it is not given here. [ ]: non-standard residue; d: D form. Glc″ = glucose, glycoside on Ser; Lac′ = lactose, glycoside on Ser; Nva = CCC[C@H](N)C(=O)O

T1: human VPAC2 (human, UniProt P41587 24-438)
T1 sequence (looked up): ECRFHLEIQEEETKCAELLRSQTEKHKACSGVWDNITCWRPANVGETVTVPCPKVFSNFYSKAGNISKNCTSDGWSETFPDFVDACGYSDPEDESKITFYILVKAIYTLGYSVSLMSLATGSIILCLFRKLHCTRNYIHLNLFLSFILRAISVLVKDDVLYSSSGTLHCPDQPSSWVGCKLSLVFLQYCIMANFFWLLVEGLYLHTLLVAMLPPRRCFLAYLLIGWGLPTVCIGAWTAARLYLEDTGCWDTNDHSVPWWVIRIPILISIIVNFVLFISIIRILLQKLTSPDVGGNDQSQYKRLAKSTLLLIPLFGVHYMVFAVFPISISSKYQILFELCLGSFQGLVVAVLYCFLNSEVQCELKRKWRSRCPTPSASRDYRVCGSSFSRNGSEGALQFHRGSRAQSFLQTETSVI

T2: human VPAC1 (human, UniProt P32241 31-457)
T2 sequence (looked up): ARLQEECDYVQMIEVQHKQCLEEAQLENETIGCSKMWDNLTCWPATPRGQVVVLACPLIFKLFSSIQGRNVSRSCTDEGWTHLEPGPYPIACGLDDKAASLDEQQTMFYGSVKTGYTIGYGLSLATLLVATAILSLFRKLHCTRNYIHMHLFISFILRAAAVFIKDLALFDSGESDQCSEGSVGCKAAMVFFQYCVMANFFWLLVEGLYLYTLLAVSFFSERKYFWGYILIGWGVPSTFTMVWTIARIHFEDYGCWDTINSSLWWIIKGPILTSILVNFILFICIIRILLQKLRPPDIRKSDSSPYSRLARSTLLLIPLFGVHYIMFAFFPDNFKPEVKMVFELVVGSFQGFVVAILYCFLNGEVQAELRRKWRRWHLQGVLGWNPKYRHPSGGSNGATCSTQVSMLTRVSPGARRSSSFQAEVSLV

T3: human PAC1 (human, UniProt P41586 21-468)
T3 sequence (looked up): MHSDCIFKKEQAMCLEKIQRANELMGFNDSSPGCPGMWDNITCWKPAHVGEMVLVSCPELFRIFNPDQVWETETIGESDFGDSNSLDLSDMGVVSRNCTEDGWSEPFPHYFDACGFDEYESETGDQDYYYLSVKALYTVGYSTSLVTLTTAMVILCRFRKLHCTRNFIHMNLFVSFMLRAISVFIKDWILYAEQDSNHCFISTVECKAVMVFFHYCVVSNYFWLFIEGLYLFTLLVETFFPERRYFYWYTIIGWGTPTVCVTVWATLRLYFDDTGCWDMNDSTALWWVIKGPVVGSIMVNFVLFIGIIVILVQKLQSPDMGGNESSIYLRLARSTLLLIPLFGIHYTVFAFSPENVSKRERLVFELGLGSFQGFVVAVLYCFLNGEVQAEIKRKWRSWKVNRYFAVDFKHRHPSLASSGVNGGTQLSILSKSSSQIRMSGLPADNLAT


Experiments:
Experiment in all cases: cell-based or functional assay
human VPAC2 [1] = target: T1, human VPAC2
human VPAC1 [2] = target: T2, human VPAC1
human PAC1 = target: T3, human PAC1
human VPAC2 [3] = target: T1, human VPAC2; remark: listed apart in the source
human VPAC1 [4] = target: T2, human VPAC1; remark: listed apart in the source
human VPAC2 [5] = target: T1, human VPAC2; remark: listed apart in the source
human VPAC1 [6] = target: T2, human VPAC1; remark: listed apart in the source

Binder	cAMP stimulation EC50 (human VPAC2 [1])	cAMP stimulation Emax (human VPAC2 [1])	cAMP stimulation EC50 (human VPAC1 [2])	cAMP stimulation Emax (human VPAC1 [2])	cAMP stimulation EC50 (human PAC1)	cAMP stimulation Emax (human PAC1)	cAMP stimulation Emax (Table 1, differs from Table 3) (human VPAC2 [3])	cAMP stimulation EC50 (Table 1, differs from Table 3) (human VPAC1 [4])	cAMP stimulation Emax (Table 1, differs from Table 3) (human VPAC1 [4])	selectivity for PAC1 versus VPAC2 (cAMP potency) (human VPAC2 [5])	selectivity for PAC1 versus VPAC1 (cAMP potency) (human VPAC1 [6])
HSDAIFTDSYSRYRKQ[Nva]AVKKYLS(Lac′)-NH2 [CRA-TG-3026]	321 nM	115%	38 nM	95%	7 nM	181%	190%	35 nM	124%		
HSDGIFTDSYSRYRKQ[Nva]AVKKYLS(Glc″)-NH2 [CRA-DV-3023]			37 nM		0.64 nM					~900 fold	~60 fold
